From patent US20020160975A1, “Conserved XIAP-interaction motif in caspase-9 and Smac/DIABLO for mediating apoptosis” (Thomas Jefferson University, priority 2001, published 2002)

Experiments:
XIAP [1] = target: T1, XIAP (Homo sapiens, UniProt P98170); assay: Cytochrome c-dependent caspase-3 activation in 293T S100 extracts containing XIAP (DEVD-AMC); assay type: biochemical; conditions: 25, 100 and 500 μM peptide, XIAP 10 nM, cytochrome c and dATP
T1 construct: made in house; host or cells: in vitro translation (cell-free)
Description: The activity of caspase-3 in the S100 extracts was measured using the peptide substrate DEVD-AMC.

full length XIAP = target: T2, full length XIAP (Homo sapiens, UniProt P98170); assay: In vitro interaction assay of GST fusion proteins with 35S-labeled XIAP; assay type: binding; conditions: for interaction with full length XIAP: C-terminal GST fusion proteins immobilized onto glutathione-affinity resin
T2 construct: full length XIAP or the isolated BIR3 domain of XIAP; made in house; host or cells: in vitro translation (cell-free)
Excerpt: (§1) The C-terminal GST fusion proteins were expressed in bacteria and then immobilized onto glutathione-affinity resin. […] The caspase-9 deletion mutants used in these studies are represented by bar diagrams above the panel in FIG. 10.

XIAP [2] = target: T1, XIAP; assay: Far Western blot analysis with 35S-labeled XIAP; assay type: binding; conditions: for binding of XIAP by Far Western: proteins on nitrocellulose membrane, denatured and renatured; for ability to interact with BIR3 (Far western, FIG. 12B): recombinant caspase-9 mutants
[3] = target: T3, isolated BIR3 domain of XIAP (Homo sapiens, UniProt P98170); assay: In vitro interaction assay of GST fusion proteins with 35S-labeled BIR3; assay type: binding; conditions: for interaction with isolated BIR3 domain of XIAP: C-terminal GST fusion proteins immobilized onto glutathione-affinity resin
T3 construct: full length XIAP or the isolated BIR3 domain of XIAP; made in house; host or cells: in vitro translation (cell-free)
Excerpt: as §1

[4] = target: T4, X-linked inhibitor of apoptosis protein (XIAP), full length (UniProt P98170 1-497); assay: gel filtration on Superose 6 and immunoblot of fractions
T4 construct: Used as in vitro translated 35S-labeled full length XIAP (pull-down, Far western) or as purified XIAP (holoenzyme experiments); also called full length XIAP; 35S-labeled XIAP

[5] = target: T5, E314S mutant BIR3 domain of XIAP (Homo sapiens, UniProt P98170, E314S); assay: Interaction of GST fusion proteins with 35S-labeled E314S mutant BIR3; assay type: binding; conditions: compared with WT BIR3
T5 construct: made in house
Excerpt: as §1

[6] = target: T4, X-linked inhibitor of apoptosis protein …; assay: Far western with 35S-labeled XIAP
[7] = target: T6, isolated BIR3 domain of XIAP (UniProt P98170 238-358, limits assumed); assay: method not stated
T6 construct: domain: BIR3; In vitro translated 35S-labeled BIR3 in pull-downs; purified XIAP-BIR3 in enzyme assays; also called XIAP-BIR3; WT BIR3

[8] = less than p12 and linker peptide

For ATPFQ (listed as Homo sapiens) [p12-N5], which “promoting caspase-3 activation in XIAP containing extracts” value (XIAP [1]) is on record?
Its value is “as effective in promoting caspase-3 activation as the Smac-N5 or N7 peptides”.

B1: p10-GST: C-terminal GST fusion protein of caspase-9 p10 (residues 331-416 of SEQ ID NO:1) (protein)
chain: AISSLPTPSDIFVSYSTFPGFVSWRDPKSGSWYVETLDDIFEQWAHSEDLQSLLLRVANAVSVKGIYKQMPGCFNFLRKKLFFKTS
modifications: left off: a dimerising Fc or GST
What does the source list for B1?
interaction with full length XIAP (full length XIAP): only weakly; interaction with full length XIAP, fold less (full length XIAP; [8]): 50 to 100 fold; binding of XIAP by Far Western (XIAP [2]): not able to bind; interaction with isolated BIR3 domain of XIAP [3]: only weakly; interaction with BIR3 domain, fold less [3, 8]: 50 to 100 fold

B2: fully processed wild-type (WT) caspase-9 (enzyme)
chain 1: MDEADRRLLRRCRLRLVEELQVDQLWDALLSRELFRPHMIEDIQRAGSGSRRDQARQLIIDLETRGSQALPLFISCLEDTGQDMLASFLRTNRQAAKLSKPTLENLTPVVLRPEIRKPEVLRPETPRPVDIGSGGFGDVGALESLRGNADLAYILSMEPCGHCLIINNVNFCRESGLRTRTGSNIDCEKLRRRFSSLHFMVEVKGDLTAKKMVLALLELAQQDHGALDCCVVVILSHGCQASHLQFPGAVYGTDGCPVSVEKIVNIFNGTSCPSLGGKPKLFFIQACGGEQKDHGFEVASTSPEDESPGSNPEPD
chain 2: ATPFQEGLRTFDQLDAISSLPTPSDIFVSYSTFPGFVSWRDPKSGSWYVETLDDIFEQWAHSEDLQSLLLRVANAVSVKGIYKQMPGCFNFLRKKLFFKTS
notes: Procaspase-9 overexpressed in E. coli, completely processed into p35 and p12 (greater than 90% at Asp315, about 10% at Asp330 giving p10, minor at Glu306); also called wild type caspase-9; processed caspase-9; not shown: C-terminal 6-Histidine tag from pET-21c or pET-28a
Does B2 bind [4]?
Result: binds

B3: p12: C-terminal GST fusion protein of Caspase-9-p12 (residues 316-416 of SEQ ID NO:1) (protein)
chain: ATPFQEGLRTFDQLDAISSLPTPSDIFVSYSTFPGFVSWRDPKSGSWYVETLDDIFEQWAHSEDLQSLLLRVANAVSVKGIYKQMPGCFNFLRKKLFFKTS
modifications: left off: a dimerising Fc or GST
What does the source list for B3?
interaction with full length XIAP (full length XIAP): able to interact; binding to E314S mutant BIR3 [5]: abrogated binding; binding of XIAP by Far Western (XIAP [2]): able to bind; interaction with isolated BIR3 domain of XIAP [3]: able to interact

B4: single mutant (D315A) caspase-9 (enzyme)
chain: MDEADRRLLRRCRLRLVEELQVDQLWDALLSRELFRPHMIEDIQRAGSGSRRDQARQLIIDLETRGSQALPLFISCLEDTGQDMLASFLRTNRQAAKLSKPTLENLTPVVLRPEIRKPEVLRPETPRPVDIGSGGFGDVGALESLRGNADLAYILSMEPCGHCLIINNVNFCRESGLRTRTGSNIDCEKLRRRFSSLHFMVEVKGDLTAKKMVLALLELAQQDHGALDCCVVVILSHGCQASHLQFPGAVYGTDGCPVSVEKIVNIFNGTSCPSLGGKPKLFFIQACGGEQKDHGFEVASTSPEDESPGSNPEPAATPFQEGLRTFDQLDAISSLPTPSDIFVSYSTFPGFVSWRDPKSGSWYVETLDDIFEQWAHSEDLQSLLLRVANAVSVKGIYKQMPGCFNFLRKKLFFKTS
notes: also called caspase-9 D315A
Which “binding of XIAP by Far Western” value (XIAP [2]) does the source give for B4 here?
The value was “not able to bind”.

Does B4 bind [6]?
Result: no binding

B5: SG: caspase-9 with first two p12 residues Ala-Thr mutated to Ser-Gly (protein, UniProt P55211 1-416, looked up, variant A316S T317G)
chain: MDEADRRLLRRCRLRLVEELQVDQLWDALLSRELFRPHMIEDIQRAGSGSRRDQARQLIIDLETRGSQALPLFISCLEDTGQDMLASFLRTNRQAAKLSKPTLENLTPVVLRPEIRKPEVLRPETPRPVDIGSGGFGDVGALESLRGNADLAYILSMEPCGHCLIINNVNFCRESGLRTRTGSNIDCEKLRRRFSSLHFMVEVKGDLTAKKMVLALLELAQQDHGALDCCVVVILSHGCQASHLQFPGAVYGTDGCPVSVEKIVNIFNGTSCPSLGGKPKLFFIQACGGEQKDHGFEVASTSPEDESPGSNPEPDSGPFQEGLRTFDQLDAISSLPTPSDIFVSYSTFPGFVSWRDPKSGSWYVETLDDIFEQWAHSEDLQSLLLRVANAVSVKGIYKQMPGCFNFLRKKLFFKTS
For B5, which “ability to interact with BIR3 (Far western, FIG. 12B)” value (XIAP [2]) is on record?
Its value is “lost significantly the ability to interact”.

B6: double mutant (D315/D330A) caspase-9 (enzyme)
chain: MDEADRRLLRRCRLRLVEELQVDQLWDALLSRELFRPHMIEDIQRAGSGSRRDQARQLIIDLETRGSQALPLFISCLEDTGQDMLASFLRTNRQAAKLSKPTLENLTPVVLRPEIRKPEVLRPETPRPVDIGSGGFGDVGALESLRGNADLAYILSMEPCGHCLIINNVNFCRESGLRTRTGSNIDCEKLRRRFSSLHFMVEVKGDLTAKKMVLALLELAQQDHGALDCCVVVILSHGCQASHLQFPGAVYGTDGCPVSVEKIVNIFNGTSCPSLGGKPKLFFIQACGGEQKDHGFEVASTSPEDESPGSNPEPAATPFQEGLRTFDQLAAISSLPTPSDIFVSYSTFPGFVSWRDPKSGSWYVETLDDIFEQWAHSEDLQSLLLRVANAVSVKGIYKQMPGCFNFLRKKLFFKTS
notes: also called caspase-9 D315/330A
B6 was tested. Which “binding of XIAP by Far Western” value (XIAP [2]) did it give?
Its value is “not able to bind”.

Does B6 bind [6]?
Result: no binding

B7: GG: caspase-9 with first two p12 residues Ala-Thr mutated to Gly-Gly (protein, UniProt P55211 1-416, looked up, variant A316G T317G)
chain: MDEADRRLLRRCRLRLVEELQVDQLWDALLSRELFRPHMIEDIQRAGSGSRRDQARQLIIDLETRGSQALPLFISCLEDTGQDMLASFLRTNRQAAKLSKPTLENLTPVVLRPEIRKPEVLRPETPRPVDIGSGGFGDVGALESLRGNADLAYILSMEPCGHCLIINNVNFCRESGLRTRTGSNIDCEKLRRRFSSLHFMVEVKGDLTAKKMVLALLELAQQDHGALDCCVVVILSHGCQASHLQFPGAVYGTDGCPVSVEKIVNIFNGTSCPSLGGKPKLFFIQACGGEQKDHGFEVASTSPEDESPGSNPEPDGGPFQEGLRTFDQLDAISSLPTPSDIFVSYSTFPGFVSWRDPKSGSWYVETLDDIFEQWAHSEDLQSLLLRVANAVSVKGIYKQMPGCFNFLRKKLFFKTS
B7 was tested. Which “ability to interact with BIR3 (Far western, FIG. 12B)” value (XIAP [2]) did it give?
The value was “lost significantly the ability to interact”.

B8: Smac-GST: mature Smac/DIABLO GST-fusion protein (protein)
chain: AVPIAQKSEPHSLSSEALMRRAVSLVTDSTSTFLSQTTYALIEAITEYTKAVYTLTSLYRQYTSLLGKMNSEEEDEVWQVIIGARAEMTSKHQEYLKLETTWMTAVGLSEMAAEAAYQTGADQASITARNHIQLVKLQVEEVHQLSRKAETKLAEAQIEELRQKTQEEGEERAESEQEAYLRED
modifications: left off: a dimerising Fc or GST
notes: mature Smac/DIABLO GST-fusion protein
For B8, which “binding to E314S mutant BIR3” value [5] is on record?
Its value is “abrogated binding”.

And the “binding of XIAP by Far Western” value (XIAP [2])?
The value was “able to bind”.

B9: SGVD176-179AVPF: caspase-3 with first four residues of p12 substituted with AVPF (protein)
chain 1: SGISLDNSYKMDYPEMGLCIIINNKNFHKSTGMTSRSGTDVDAANLRETFRNLKYEVRNKNDLTREEIVELMRDVSKEDHSKRSSFVCVLLSHGEEGIIFGTNGPVDLKKITNFFRGDRCRSLTGKPKLFIIQACRGTELDCGIETD
chain 2: AVPFDDMACHKIPVEADFLYAYSTAPGYYSWRNSKDGSWFIQSLCAMLKQYADKLEFMHILTRVNRKVATEFESFSFDATFHAKKQIPCIVSMLTKELYFYH
Which “binding of XIAP by Far Western” value (XIAP [2]) does the source give for B9 here?
The value was “enhanced binding”.

How did the Kd [7] turn out when ATPFQEGLRTFDQLD [chemically synthesized caspase-9 linker peptide (ATPFQEGLRTFDQLD)] was run?
The Kd was 550 nM.

Which Kd [7] does the source give for AVPIAQK [Smac-N7 peptide (AVPIAQK)] here?
The Kd was ~810 nM.
